Data on 16 sequences can be found in the nanobody polyreactivity screen of Harvey et al. (2022).

This data set can be described thus: yeast display, Sf9 membrane polyspecificity reagent, FACS + sequencing; frameworks hold sequencing errors. Put shortly:
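After 36–48 hours of galactose induction, yeast (Saccharomyces cerevisiae BJ5465) displaying a synthetic nanobody library were stained at 4 °C for 1 hour with 10% biotinylated, detergent-solubilized Sf9 membrane reagent. Streptavidin microbeads enriched the stained cells before FACS sorting into low and high (top ~1%) gates on anti-HA and streptavidin fluorescence. Each clone's polyreactivity label reflects its gate of origin.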
In the case of “QVQLVESGGGLLQAGGSLRLSCAASGSIFGYYAMGWYRQAPGKERELVAAISRSGGSTYYADSVKGRFTISRDNAKNTVYLQMNSLKPEDTAVYYCAADDYPYGNYYWGQGTQVTVSS”, the “polyreactivity (PSR sort gate)” value is “high polyreactivity”. For “QVQLVESGGGLLQAGGSLRLSCAASGSIFTLYDMGRYRQAPGKERELVAAITSGGSTDYADSVKGRFTISRDYAKNTVFLQMNSLKPEDTAVYYCNAEAYPYWYRGASRDYDYWGQGTQVTVSS” the value was “low polyreactivity”; for “QVQLVESGGGLLQAGGSLRLSCAASGSTFPSYAMGWYRQAPGKERELVAAINSGGGTNYADSVKGRFTISRDNAKNNVYLQMNSLKPEDTAVYYCAKSRYDYTKTDGGYWGQGTQVTVSS”, “low polyreactivity”. “QVQLVESGGGLLQAGGSLRLSCAASGSTFVYYAMGWYRQAPGKERELVASINSGGSTYYADSVKGRFRISRDNEKNTVYLQMNSLKPEDTAVYYCAATSIPPSVHLQDPTYDYWGQGTQVTVSS”: the “polyreactivity (PSR sort gate)” value is “low polyreactivity”. As for “QVQLVESGGGLLQAGGSLRLSCAASGSTFYIYSMGCYRQAPGKERELVARISGAGGSTYYSDSVKGRFTISRDNAKNTVYFQMNCLNPEDTAVYYCAAVDIYKYYQYYACPYDSYDYWGQGTQVTVSS”, the “polyreactivity (PSR sort gate)” value is given as “low polyreactivity”. For “QVQLVESGGGLLQAGGSLRLSCAASGSTIWSYAMGWYRQAPGKERELVASITWSGGSTYADSVKGRFTISRDNAKNTVYLQMNSLKPEDTAVYYCAADRGSYPDTGDYWGHGTQVTVSS” the value was “low polyreactivity”. Then “QVQLVESGGGLLQAGGSLRLSCAASGSTVGINAMGWYRQAPGKERELVASITRRGGSTYYADSVKGRFTISRDNAKNTVYLQMNSLKPEDTAVYYCNKTYRYGTPLYDYWGQGSQVTVSS”, with “high polyreactivity”. For “QVQLVESGGGLLQAGGSLRLSCAASGYTFASNAMGWYRQAPGKERELVAAITRGGSTNYADSVKGRFTISRDNAKNTVYLQMNSLKPEDTAVYYCAAPRYRHTRKGGYWGQGTQLTVSS” the value was “low polyreactivity”; for “QVQLVESGGGLLQAGGSLRVSCAASGSTLVGNTMGWYRQAPGKESELLAAITGVGSTNYADSVKGRFTISRDNAKNSVYLQMNSLKPEDTAVYSCAAEYSYTYIVSYLYDMDYWGQATQVTVSS”, “low polyreactivity”. With “QVQLVESGGGLLQAGGSLSLICAASGFSIYKNAMGWYSQAPGKERELVAAITSSGGYTYYADSVKGRFTISRDNAKNTVYLQMNILKPEDTAVYYCAGSPQAYIADYDYWGQGTQVTVSS”, the “polyreactivity (PSR sort gate)” value is on record as “low polyreactivity”. For “QVQLVESGGGLVEAGGSLRLSCAAGGRIVDRYAMGWYRQAPGKEREVVAAISDRGGSTYYADSVKGRFTISRDNAKNTVYLQMNSLKPEDTAVYYCNKVYGWYSFTWGPTASDYWGQGTQVTVSS”, the “polyreactivity (PSR sort gate)” value is “low polyreactivity”. Then “QVQLVESGGGLVEAGGSLRLSCAASGIFRYYAMGWYRQAPGKERELVASITGGGSTYYADSVKGRFTISRDNAKNTVYLQMNSLKPEDTAVYYCNTAGAYYRWTPYYYWGQGTQVTVSS”, with “high polyreactivity”; and “QVQLVESGGGLVEAGGSLRLSCAASGRIFLYKAMGWYRQAPVKERELVAAITASGGTTYYADSVKGRFTLSRDNAKNTVYLQMNSLKPEDTAVYYCNAYSYSGERYYWGQGTQVTVSS”, with “high polyreactivity”; and “QVQLVESGGGLVEAGGSLRLSCAASGSNFPWNAMGWSIQAPGKESDLVAGISSRGGSTYYADSVKGRFTISRDNAKNTVYLQMNSLKPEDTAVYYCNAAAVRRGRLVKLDYWGQGTQVTVSS”, with “high polyreactivity”. Then “QVQLVESGGGLVEAGGSLRLSCAASGSTFGYNAMGWYRQAPGKERELVAAISWSGGSTYYADSVKGRFTISRDNAKNTVYLQMNSLKPEDTAVYYCATPYVKWNDYWGQGTQVTVST”, with “low polyreactivity”; and “QVQLVESGGGLVEAGGSLRLSCAASGSTSRHNTMGWYRQAPGKERELVAAISGGGTTYYADSVKGRFTISRDNAKNTVYLQMNRLNPEDTAVDDCAAAFWGDYASSYRAGLDYWGQGTQETVSS”, with “low polyreactivity”.
